According to patent US20210032331A1 (PHANES THERAPEUTICS, published 2021):
Positions count from the first letter of the chain named.

How the values were obtained:
[1] = biological target: T1, human LAG-3(ECD)-mFc (human, UniProt P18627 23-450); test: FACS competition: mAb preincubated with human LAG-3(ECD)-mFc (1 ug/ml); binding to MHC class II on Daudi cells detected with anti-mouse Fc-PE
T1 construct: also called hLAG3-mFc; human LAG-3 extracellular domain (ECD) fused to mouse Fc; not shown: mouse Fc
T1 sequence: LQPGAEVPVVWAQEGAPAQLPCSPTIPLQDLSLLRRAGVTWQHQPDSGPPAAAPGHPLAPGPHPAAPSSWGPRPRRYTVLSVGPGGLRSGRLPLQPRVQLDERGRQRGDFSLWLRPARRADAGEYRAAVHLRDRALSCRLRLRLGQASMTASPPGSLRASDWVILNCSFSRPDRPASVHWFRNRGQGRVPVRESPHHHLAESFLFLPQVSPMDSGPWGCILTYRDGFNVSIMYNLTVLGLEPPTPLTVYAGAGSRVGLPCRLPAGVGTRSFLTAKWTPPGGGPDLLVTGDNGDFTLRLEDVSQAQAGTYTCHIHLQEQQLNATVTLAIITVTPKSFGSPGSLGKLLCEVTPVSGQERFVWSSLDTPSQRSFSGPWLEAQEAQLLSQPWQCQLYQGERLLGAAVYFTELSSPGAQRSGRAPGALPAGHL
Description: (§1) Human Daudi cells were cultured in RPMI+10% FBS. Human LAG-3(ECD)-mFc protein (human LAG-3 ECD fused to mouse Fc) at 1 μg/ml final concentration was incubated with purified mouse, humanized, or chimeric anti-LAG-3 mAbs at various concentrations for 15 minutes at 4° C. The mixture was then added to 100,000 human Daudi cells in a 96-well round bottom plate, mixed and incubated for 15 minutes on ice. Cells were then centrifuged at 1,000 rpm for 5 minutes and washed with FACS buffer (PBS supplemented with 5% BSA) three times. The cells were then incubated with PE-conjugated goat anti-mouse Fc polyclonal antibodies on ice for 15 minutes, washed with FACS buffer three times and then resuspended in FACS buffer containing 0.1 μg/ml PI (propidine iodine) for live/dead cell gating. Cells were then run through the FACS Caliber instrument and the data were analyzed by the Flowjo software. Results of the inhibition of LAG-3 binding to Daudi cells by chimeric mAbs B1C, B3C, B4C, BSC, B9C, and B11C are shown in FIG. 4B.
The mouse anti-hLAG-3 mAbs B5 and B7 were humanized to reduce the potential of immunogenicity when used in human patients. The CDRs in both the heavy and light chains of the mouse mAb were grafted into human framework that have the highest possibility of maintaining the proper structure required for antigen binding. Backmutations from human reside to mouse residue were designed when necessary. The sequences of the humanized VH and VL regions are shown in Table 11 and Table 12, respectively. The humanized VH and VL regions were fused to the constant regions of human IgG4 heavy chain and kappa light chain, respectively, to generate humanized mAbs. Constructs corresponding to the mAb sequences were used for transient transfection in 293E cells. Purified mAbs were analyzed for their ability to inhibit hLAG-3 binding to MHC class II molecules on Daudi cells.

[2] = biological target: T1, human LAG-3(ECD)-mFc; test: FACS blocking assay: mAb preincubated with LAG-3(ECD)-mFc (1 µg/mL), blocked ligand MHC class II on Daudi cells, PE anti-mouse Fc
Description: FIGS. 4A-4D show inhibition of human LAG-3 binding to MHC class II molecules by select anti-LAG-3 mAbs. An in vitro binding assay was performed using recombinant LAG-3(ECD)-mFc and Daudi cells which express human MHC class II molecules. […] The binding of LAG-3(ECD)-mFc to Daudi cells in the presence of anti-LAG-3 mAbs or a control mAb was analyzed by FACS.
as §1

B1: B7(H5L8) (antibody, V domains shown)
VH: EVQLVQSGAEVKKPGASVKVSCKASGYSFSDYNLNWVRQAPGQTLEWMGLINLDSAATVYNQKFKGKATMTIDQSTSTAYMELSSLRSEDTAVYYCASYDYWGQGTLVTVSS
VL: DIQMTQSPSSLSASVGDRVTITCRASQDISHYLNWFQQKPGKAPKRLIYETSTLDFGVPSRFSGSGSGTDFTFTISSLQPEDIATYYCLQYATYPLTFGGGTKVEIK
notes: Humanized VH and VL fused to constant regions of human IgG4 heavy chain and kappa light chain; also called humanized B7 with B7/H5 heavy chain and B7/L8 light chain
Work on B1 yielded an IC50 [1] of 0.72 nM.

B2: B7(H3L8) (antibody, V domains shown)
VH: B1 VH with S28T, T44G, I72R, Q74T, A79V
VL: B1 VL
notes: Humanized VH and VL fused to constant regions of human IgG4 heavy chain and kappa light chain; also called humanized B7 with B7/H3 heavy chain and B7/L8 light chain
For B2, the IC50 [1] was 0.66 nM.

B3: B7(H6L5) (antibody, V domains shown)
VH: B1 VH with V2F
VL: B1 VL with R46L
notes: Humanized VH and VL fused to constant regions of human IgG4 heavy chain and kappa light chain; also called humanized B7 with B7/H6 heavy chain and B7/L5 light chain
Binder B3 has an IC50 [1] of 0.78 nM.

B4: B7(H3L5) (antibody, V domains shown)
VH: B1 VH with S28T, T44G, I72R, Q74T, A79V
VL: B1 VL with R46L
notes: Humanized VH and VL fused to constant regions of human IgG4 heavy chain and kappa light chain; also called humanized B7 with B7/H3 heavy chain and B7/L5 light chain
B4 showed an IC50 [1] of 4.18 nM.

B5: B7(H1L5) (antibody, V domains shown)
VH: B1 VH with S28T, T44G, K67R, A68V, I72R, Q74T, A79V
VL: B1 VL with R46L
notes: Humanized VH and VL fused to constant regions of human IgG4 heavy chain and kappa light chain; also called humanized B7 with B7/H1 heavy chain and B7/L5 light chain
B5 was tested, and the IC50 [1] was 1.59 nM.

B6: B3C (antibody, V domains shown)
VH: QVQLQQPGAELLKPGASVKMSCKASGYTFTSYDIHWLKQTPGQGLEWIGAIYPENGDSSYSQKFKDKATLTADKSSNTAYIHLSSLTSEDSAVYYCARGGYYDYVWFPYWGQGTLVTVSA
VL: DVVMTQTPLSLPVSLGDQASISCRSSQSILYSNGYTYLEWYLQKPGQSPKLLIYGVSNRFSGVPDRFSGSGSGTDFTLKISRVESEDMGVYYCFQGTHVPLTFGAGTKLELK
notes: Chimeric: mouse VH and VL fused to constant regions of human IgG1 heavy chain and kappa light chain; also called the chimeric version of mouse mAb B3; B3 (human IgG1 heavy chain and kappa light chain chimeric)
In the case of B6, the “IC50 (read off the curve)” value [2] is reported as roughly 0.4 µg/mL.

B7: B4C (antibody, V domains shown)
VH: B6 VH with D66G, Y102F
VL: B6 VL with L30V, S85A
notes: Chimeric: mouse VH and VL fused to constant regions of human IgG1 heavy chain and kappa light chain; also called the chimeric version of mouse mAb B4; B4 (human IgG1 heavy chain and kappa light chain chimeric)
With B7 the “IC50 (read off the curve)” value [2] was roughly 0.4 µg/mL.

B8: B1C (antibody, V domains shown)
VH: DVQLQESGPGLVKPSQSLSLTCTVTGYSITSDYAWNWIRQFPGNKLEWMGYIDYSGITSYNPSLKSRISITRDTSKNQFFLQLNSVTTEDTATYYCAREDHYDLAWFAYWGQGTLVTVSA
VL: DIQMTQTTSSLSASLGDRVTISCRASQDISNYLNWYQQKPDGTVKLLIYYTSRLHSGVPSRFSGSGSGTDYSLTISNLEPEDIATYYCHQYSNRPPTFGGGTKLEIK
notes: Chimeric: mouse VH and VL fused to constant regions of human IgG1 heavy chain and kappa light chain; also called the chimeric version of mouse mAb B1
B8 was tested, and the “IC50 (read off the curve)” value [2] was roughly 0.4 µg/mL.

B9: B15 (antibody, V domains shown)
VH: EVQLQQSGAELVRPGASVKLSCTASGFNIKDDYMFWVKQRPEQGLEWIGWIDPENGDTEYASKFQGKATITADTSSNTAYLQLSSLTSEDTAVYYCTLYAYWGQGTLVTVSA
VL: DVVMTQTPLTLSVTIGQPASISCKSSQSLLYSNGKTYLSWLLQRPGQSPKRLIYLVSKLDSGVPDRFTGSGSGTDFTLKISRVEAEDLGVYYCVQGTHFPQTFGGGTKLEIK
notes: Mouse mAb from hybridoma; also called mouse anti-LAG-3 mAb B15
B9: binds [2].

B10: B7C (antibody, V domains shown)
VH: EFQLQQSGPELVKPGASVKISCKASGYSFSDYNLNWVKQSNGKTLEWIGLINLDSAATVYNQKFKGKATLTIDQSSTTAYMQLNSLTSDDSAVYYCASYDYWGQGTTLTVSS
VL: DIQMTQSPSSLSASLGERVSLSCRASQDISHYLNWFQQKPDGTFKRLIYETSTLDFGVPKRFSGSRSGSDYSLTIGSLESEDFADYYCLQYATYPLTFGAGTKLELK
notes: Chimeric: mouse VH and VL fused to constant regions of human IgG1 heavy chain and kappa light chain; also called the chimeric version of mouse mAb B7
With B10 the “IC50 (read off the curve)” value [2] was roughly 0.3 µg/mL.

B11: B10C (antibody, V domains shown)
VH: EFQLQQSGPELVKPGASVKISCKASGYSFTDYNLNWVKESNGKSLEWIGLITLDYGTTIYNQKFKGKATLTVDQSSSIAYMQLNSLTSDDSAVYYCACYDYWGQGTTLTVSS
VL: B10 VL with S22T, H31N, E50A, G76S, T93S
notes: Chimeric: mouse VH and VL fused to constant regions of human IgG1 heavy chain and kappa light chain; also called the chimeric version of mouse mAb B10
For B11, the “IC50 (read off the curve)” value [2] was roughly 0.3 µg/mL.

B12: B9C (antibody, V domains shown)
VH: EVQLRQSGPVLVKPGASVKMSCKASGYTFTGYYMNWVKQSHGKSLEWLAVINPYNGDTAYNRKFKGRATLTVDKSSSTAYMELNRLTSEDSAVYYCVRDDGYHVRYFDVWGTGTTVTVSS
VL: DIQMTQSPSSLSASLGERVSLTCRASQDISDSLCWLQQKPDGTIKRLIYSTSTLDSGVPKRFSGSRSGSDYSLTISSLESEDFADYYCLQYASSPPTFGGGTKLEIK
notes: Chimeric: mouse VH and VL fused to constant regions of human IgG1 heavy chain and kappa light chain; also called the chimeric version of mouse mAb B9
With B12 the “IC50 (read off the curve)” value [2] was roughly 0.06 µg/mL.

B13: B11C (antibody, V domains shown)
VH: EVQLQQSGPVLVRPGASVKMSCKASGYTFTNYYMNWVKQSHGKSLEWIGVINPYNGDIAYSQKFKGKATLTVDKSSSTAYMELKSLTSEDSAVYYCARDDGYYVYYFDCWGQGTTLTVSS
VL: B12 VL with S30G, D31G, C34N, Y91N, S93N
notes: Chimeric: mouse VH and VL fused to constant regions of human IgG1 heavy chain and kappa light chain; also called the chimeric version of mouse mAb B11
With B13 the “IC50 (read off the curve)” value [2] was roughly 0.1 µg/mL.
